Legend:
[1] = molecular target: Jmjd6 active site mutant ASM1 (GFP fusion) (human, UniProt Q5R6G2 1-403); test: GFP nanotrap pulldown, Western blot
[2] = molecular target: Jmjd6 with an N-terminal deletion of seven amino acids (GFP fusion) (human, UniProt Q5R6G2 8-403); test: GFP nanotrap pulldown, Western blot
[3] = molecular target: TAP-tagged Jmjd6 fusion protein (human); test: tandem affinity purification of TAP-tagged Jmjd6 from HEK293T cells, MS identification

Binder | binding result [1] | binding result [2] | binding result [3]
Splicing factor U2AF 65 kD subunit (other, also called U2 snRNP auxiliary factor 65 KDa subunit) SDFDEFERQLNENKQERDKENRHRKRSHSRSRSRDRKRRSRSRDRRNRDQRSASRDRRRRSKPLTRGAKEEHGGLIRSPRHEKKKKVRKYWDVPPPGFEHITPMQYKAMQAAGQIPATALLPTMTPDGLAVTPTPVPVVGSQMTRQARRLYVGNIPFGITEEAMMDFFNAQMRLGGLTQAPGNPVLAVQINQDKNFAFLEFRSVDETTQAMAFDGIIFQGQSLKIRRPHDYQPLPGMSENPSVYVPGVVSTVVPDSAHKLFIGGLPNYLNDDQVKELLTSFGPLKAFNLVKDSATGLSKGYAFCEYVDINVTDQAIAGLNGMQLGDKKLLVQRASVGAKNATLVSPPSTINQTPVTLQVPGLMSSQVQMGGHPTEVLCLMNMVLPEELLDDEEYEEIVEDVRDECSKYGLVKSIEIPRPVDGVEVPGCGKIFVEFTSVFDCQKAMQGLTGRKFANRVVVTKYCDPDSYHRRDFW | no binding | no binding | binds
cisplatin resistance-associated overexpressed protein (CROP) (other, also called CROP protein) MISAAQLLDELMGRDRNLAPDEKRSNVRWDHESVCKYYLCGFCPAELFTNTRSDLGPCEKIHDENLRKQYEKSSRFMKVGYERDFLRYLQSLLAEVERRIRRGHARLALSQNQQSSGAAGPTGKNEEKIQVLTDKIDVLLQQIEELGSEGKVEEAQGMMKLVEQLKEERELLRSTTSTIESFAAQEKQMEVCEVCGAFLIVGDAQSRVDDHLMGKQHMGYAKIKATVEELKEKLRKRTEEPDRDERLKKEKQEREEREKEREREREERERKRRREEEEREKERARDRERRKRSRSRSRHSSRTSDRRCSRSRDHKRSRSRERRRSRSRDRRRSRSHDRSERKHRSRSRDRRRSKSRDRKSYKHRSKSRDREQDRKSKEKEKRGSDDKKSSVKSGSREKQSEDTNTESKESDTKNEVNGTSEDIKSEGDTQSN | – | – | binds

From patent US20110130449A1 (ISIS INNOVATION, published 2011)
